In patent US20060234285A1 (Human Genome Sciences, published 2006):

Experiments:
Experiment in all cases: flow cytometry on transiently transfected cells
[1] = target: T1, CD30, on transiently transfected cells (UniProt P28908 19-595, limits assumed)
T1 construct: whole, on cells
T1 sequence (looked up): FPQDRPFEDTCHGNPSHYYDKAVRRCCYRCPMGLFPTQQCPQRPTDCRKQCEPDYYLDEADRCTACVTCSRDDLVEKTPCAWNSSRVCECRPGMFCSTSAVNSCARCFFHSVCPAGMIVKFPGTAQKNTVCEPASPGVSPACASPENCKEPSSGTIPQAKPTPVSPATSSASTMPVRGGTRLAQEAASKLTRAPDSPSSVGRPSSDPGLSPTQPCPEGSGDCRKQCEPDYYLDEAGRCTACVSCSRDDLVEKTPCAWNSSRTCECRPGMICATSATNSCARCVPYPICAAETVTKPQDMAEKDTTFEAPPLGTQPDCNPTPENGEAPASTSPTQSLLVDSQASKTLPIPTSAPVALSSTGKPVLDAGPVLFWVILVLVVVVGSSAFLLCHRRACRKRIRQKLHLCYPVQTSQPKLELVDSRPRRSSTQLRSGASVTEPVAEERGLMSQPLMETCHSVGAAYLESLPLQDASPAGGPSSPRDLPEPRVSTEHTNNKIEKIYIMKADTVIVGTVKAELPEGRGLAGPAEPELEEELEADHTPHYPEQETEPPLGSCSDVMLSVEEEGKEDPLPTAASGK
Procedure: (§1) One million cells, in 0.1 ml of FACS buffer (PBS, 0.1% BSA, 0.1% NaN₃), were incubated with 0.1-1 microgram of protein or antibody at RT for 15 min. The cells were washed with 3 ml of FACS buffer, reacted with biotinylated primary antibody, and stained with PE-conjugated secondary antibody at RT for 15 min. Cells were then washed again, resuspended in 0.5 microgram/ml of propidium iodide, and live cells were gated and analyzed on a FACScan using the CellQuest software (BD Biosciences).

[2] = target: T2, BCMA, on transiently transfected cells (UniProt Q02223 1-184, limits assumed)
T2 construct: whole, on cells
T2 sequence (looked up): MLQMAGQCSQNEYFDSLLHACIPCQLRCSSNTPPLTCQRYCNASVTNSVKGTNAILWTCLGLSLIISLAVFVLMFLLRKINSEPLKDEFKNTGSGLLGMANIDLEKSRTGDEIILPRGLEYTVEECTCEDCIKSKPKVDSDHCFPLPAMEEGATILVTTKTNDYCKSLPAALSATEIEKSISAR
Procedure: as §1

[3] = target: T3, DR5, on transiently transfected cells (UniProt O14763 56-440, limits assumed)
T3 construct: whole, on cells
Procedure: as §1

[4] = target: T4, DcR1, on transiently transfected cells (UniProt O14798 26-236, limits assumed)
T4 construct: whole, on cells
T4 sequence (looked up): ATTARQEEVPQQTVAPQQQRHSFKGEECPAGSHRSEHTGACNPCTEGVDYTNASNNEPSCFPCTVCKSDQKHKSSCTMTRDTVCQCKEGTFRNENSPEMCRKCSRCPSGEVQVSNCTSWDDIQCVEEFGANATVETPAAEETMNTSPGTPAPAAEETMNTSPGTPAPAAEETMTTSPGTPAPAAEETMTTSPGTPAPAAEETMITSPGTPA
Procedure: as §1

[5] = target: T5, DcR2, on transiently transfected cells (UniProt Q9UBN6 56-386, limits assumed)
T5 construct: whole, on cells
T5 sequence (looked up): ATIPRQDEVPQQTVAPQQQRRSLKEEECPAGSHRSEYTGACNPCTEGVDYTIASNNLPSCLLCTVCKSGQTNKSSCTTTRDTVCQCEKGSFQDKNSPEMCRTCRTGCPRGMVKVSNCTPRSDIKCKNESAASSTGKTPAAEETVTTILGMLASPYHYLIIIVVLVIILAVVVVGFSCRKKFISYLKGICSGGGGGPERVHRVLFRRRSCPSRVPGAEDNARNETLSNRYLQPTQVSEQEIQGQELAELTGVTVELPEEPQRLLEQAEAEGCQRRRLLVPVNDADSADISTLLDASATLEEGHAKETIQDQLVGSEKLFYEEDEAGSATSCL
Procedure: as §1

[6] = target: T6, RANK, on transiently transfected cells (UniProt Q9Y6Q6 30-616, limits assumed)
T6 construct: whole, on cells
T6 sequence (looked up): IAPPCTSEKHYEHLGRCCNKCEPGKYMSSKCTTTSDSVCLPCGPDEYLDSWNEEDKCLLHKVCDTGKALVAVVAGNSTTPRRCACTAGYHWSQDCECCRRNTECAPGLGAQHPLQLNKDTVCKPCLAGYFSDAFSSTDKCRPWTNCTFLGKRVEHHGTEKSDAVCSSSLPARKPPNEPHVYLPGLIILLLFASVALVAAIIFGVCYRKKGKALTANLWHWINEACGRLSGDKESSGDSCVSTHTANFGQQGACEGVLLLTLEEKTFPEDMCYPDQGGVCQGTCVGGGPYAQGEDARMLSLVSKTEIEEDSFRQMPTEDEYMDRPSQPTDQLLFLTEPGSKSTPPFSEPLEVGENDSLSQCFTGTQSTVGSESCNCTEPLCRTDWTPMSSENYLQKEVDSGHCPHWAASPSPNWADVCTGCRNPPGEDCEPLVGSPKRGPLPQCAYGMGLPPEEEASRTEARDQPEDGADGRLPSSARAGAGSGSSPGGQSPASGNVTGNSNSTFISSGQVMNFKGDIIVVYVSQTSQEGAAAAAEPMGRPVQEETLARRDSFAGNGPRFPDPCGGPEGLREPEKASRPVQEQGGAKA
Procedure: as §1

Measured: binding result

B1: FLAG-tagged soluble form of TNF-gamma-beta (aa 72-251) (ligand, human, UniProt O95150 72-251, looked up, not shown: small tags and cut ends)
chain: LKGQEFAPSHQQVYAPLRADGDKPRAHLTVVRQTPTQHFKNQFPALHWEHELGLAFTKNRMNYTNKFLLIPESGDYFIYSQVTFRGMTSECSEIRQAGRPNKPDSITVVITKVTDSYPEPTQLLMGTKSVCEVGSNWFQPIYLGAMFSLQEGDKLMVNVSDISLVDYTKEDKTFFGAFLL
notes: also called FLAG-TL1β; FLAG-TNF-gamma-beta
no binding: all assays above
